The source of these data is patent publication US10111934.

This experiment deals with IGF-I receptor (IGF-IR) on P6 cells, which overexpress IGF-IR (UniProt P08069). Put plainly: cell-based or functional assay.
UniProt P08069, sequence (P08069 31-1367 limits assumed): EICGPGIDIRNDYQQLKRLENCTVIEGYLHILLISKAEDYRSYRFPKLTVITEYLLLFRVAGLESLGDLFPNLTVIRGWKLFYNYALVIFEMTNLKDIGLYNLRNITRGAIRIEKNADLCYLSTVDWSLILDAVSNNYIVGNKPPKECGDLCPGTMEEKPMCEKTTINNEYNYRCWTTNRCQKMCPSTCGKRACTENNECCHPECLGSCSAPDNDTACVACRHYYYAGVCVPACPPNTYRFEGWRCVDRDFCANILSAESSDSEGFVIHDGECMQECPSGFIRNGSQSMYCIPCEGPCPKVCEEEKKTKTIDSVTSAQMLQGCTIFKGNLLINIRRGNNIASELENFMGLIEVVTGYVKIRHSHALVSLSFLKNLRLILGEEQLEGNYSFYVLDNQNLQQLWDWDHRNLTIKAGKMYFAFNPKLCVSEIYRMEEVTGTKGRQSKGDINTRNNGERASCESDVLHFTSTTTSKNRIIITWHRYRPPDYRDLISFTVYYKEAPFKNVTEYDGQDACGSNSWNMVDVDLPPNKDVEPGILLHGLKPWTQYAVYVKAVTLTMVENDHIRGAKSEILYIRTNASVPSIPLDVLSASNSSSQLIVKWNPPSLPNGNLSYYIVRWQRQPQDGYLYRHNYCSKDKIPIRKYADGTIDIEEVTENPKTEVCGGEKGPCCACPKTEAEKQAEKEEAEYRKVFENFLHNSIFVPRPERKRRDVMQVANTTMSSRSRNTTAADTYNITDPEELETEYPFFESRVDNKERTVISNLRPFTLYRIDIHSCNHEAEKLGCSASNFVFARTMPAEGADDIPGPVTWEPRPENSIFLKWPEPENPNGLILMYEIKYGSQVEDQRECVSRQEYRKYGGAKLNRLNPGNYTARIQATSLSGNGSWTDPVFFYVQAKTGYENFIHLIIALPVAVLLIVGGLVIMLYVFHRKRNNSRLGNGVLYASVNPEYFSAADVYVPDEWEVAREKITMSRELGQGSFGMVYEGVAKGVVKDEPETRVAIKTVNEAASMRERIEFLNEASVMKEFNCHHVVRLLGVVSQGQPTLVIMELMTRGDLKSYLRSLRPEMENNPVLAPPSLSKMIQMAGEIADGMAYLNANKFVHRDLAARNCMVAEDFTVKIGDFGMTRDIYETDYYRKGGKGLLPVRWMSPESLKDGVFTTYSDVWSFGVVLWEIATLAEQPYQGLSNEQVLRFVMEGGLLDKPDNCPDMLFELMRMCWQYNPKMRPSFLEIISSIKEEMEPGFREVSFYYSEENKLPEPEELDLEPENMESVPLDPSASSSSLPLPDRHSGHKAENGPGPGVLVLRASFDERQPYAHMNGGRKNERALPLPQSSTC

Substance “IGF-IA (murine class I IGF-IA, wild-type construct) (from UniProt P05017 49-153) (ligand)” gave an IGF-IR phosphorylation per IGF molecule against mature IGF-I (KIRA, 4 experiments) of 30 % less; a KIRA (rel to IStop) of 0.59; a KIRA Raw (IGF-IR phosphorylation, KIRA assay on P6 cells, conditioned medium) of 45.8; a KIRA/Total IGF of 28.2.

Substance “IGF-IKRR (IGF-IA with K68G, R71A, R77A, cleavage blocked) (from UniProt P05017 49-153) (ligand)” displayed an IGF-IR phosphorylation per IGF molecule against mature IGF-I (KIRA, 4 experiments) of 30 % less; a KIRA (rel to IStop) of 0.61; a KIRA Raw (IGF-IR phosphorylation, KIRA assay on P6 cells, conditioned medium) of 23.6; a KIRA/Total IGF of 29.3.

For “IGF-IKRRNN (IGF-IA with K68G, R71A, R77A, N92D, N100D; produces only pro-IGF-I) (from UniProt P05017 49-153) (ligand)”, the IGF-IR response in Kinase Receptor Activation (KIRA) assays, against mature IGF-I came out at 30 % more; the KIRA (rel to IStop) came out at 0.93; the KIRA Raw (IGF-IR phosphorylation, KIRA assay on P6 cells, conditioned medium) stood at 42.6; the KIRA/Total IGF was 44.4.

The substance “IGF-INN (IGF-IA with N92D and N100D, glycosylation blocked) (from UniProt P05017 49-153) (ligand)” yielded a KIRA (rel to IStop) of 0.88; a KIRA Raw (IGF-IR phosphorylation, KIRA assay on P6 cells, conditioned medium) of 65.8; a KIRA/Total IGF of 42.4.

For “gly-pro-IGF-I (glycosylated pro-IGF-IA) (from UniProt P05017 1-153) (ligand)”, the calculated IGF-IR activation (KIRA, FIG. 5B), potency against mature IGF-I (fold less potent) was 2; the calculated relative IGF-IR activation by gly-pro-IGF-I (GP), mature IGF-I set to 1.0, from the IA equation was 0.3; the calculated relative IGF-IR activation by gly-pro-IGF-I (GP), mature IGF-I set to 1.0, from the KRR equation is 0.47; the calculated relative IGF-IR activation by gly-pro-IGF-I (GP), mature IGF-I set to 1.0, mean of the IA and KRR equations is 0.38.

“mature IGF-I (murine), produced from the IGF-ISt construct (from UniProt P05017 49-118) (ligand)” registered a KIRA (rel to IStop) of 1; a KIRA Raw (IGF-IR phosphorylation, KIRA assay on P6 cells, conditioned medium) of 39; a KIRA/Total IGF of 47.9.

For “pro-IGF-I (non-glycosylated pro-IGF-IA: mature IGF-I plus EA-peptide) (from UniProt P05017 1-153) (ligand)”, the calculated relative IGF-IR activation by pro-IGF-I (P), mature IGF-I set to 1.0, from the NN equation is 0.84; the calculated relative IGF-IR activation by pro-IGF-I (P), mature IGF-I set to 1.0, mean of the NN and KRRNN equations is 0.89.
